Assay results: the supplement of paper PMC5998384

What was measured:
[1] = test system: HeLa Kyoto; assay: solubility in G1/S (NP-40 vs SDS abundance) (log2 ratio); higher = more soluble; details: cell cycle stage: G1/S
[2] = test system: HeLa Kyoto; assay: melting temperature (median over replicates), in situ; higher = more thermally stable
[3] = test system: HeLa Kyoto; assay: solubility change mitosis vs G1/S (difference of NP-40 vs SDS log2 ratios) (log2 ratio difference); higher = more soluble in mitosis
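For melting temperature (median over replicates), in situ in this document: HeLa Kyoto cells synchronized by double thymidine or nocodazole block, proteins quantified by TMT10plex mass spectrometry, three independent biological replicates.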
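For solubility change mitosis vs G1/S (difference of NP-40 vs SDS log2 ratios) in this document: synchronized HeLa Kyoto cells (double thymidine block for G1/S, nocodazole release for mitosis), protein amounts in NP-40 versus SDS lysates quantified by mass spectrometry, three biological replicates.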
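For solubility in G1/S (NP-40 vs SDS abundance) in this document: HeLa Kyoto cells arrested at G1/S by double thymidine block, proteins quantified by TMT10plex mass spectrometry in mild NP-40 versus SDS extracts, three biological replicates.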

| Substance | solubility in G1/S (log2) [1] | melting temperature ([2]; cell cycle stage: G1/S) | melting temperature ([2]; cell cycle stage: mitosis) | solubility change mitosis (log2) [3] |
| --- | --- | --- | --- | --- |
| MTGKKSSREKRRKRSSQEAAAALAAPDIVPALASGSSGSTSGCGSAGGCGSVSCCGNANFSGSVTGGGSGGSCWGGSSVERSERRKRRSTDSSSVSGSLQQETKYILPTLEKELFLAEHSDLEEGGLDLTVSLKPVSFYISDKKEMLQQCFCIIGEKKLQKMLPDVLKNCSIEEIKKLCQEQLELLSEKKILKILEGDNGMDSDMEEEADDGSKMGSDLVSQQDICIDSASSVRENKQPEGLELKQGKGEDSDVLSINADAYDSDIEGPCNEEAAAPEAPENTVQSEAGQIDDLEKDIEKSVNEILGLAESSPNEPKAATLAVPPPEDVQPSAQQLELLELEMRARAIKALMKAGDIKKPA [CAAP1] | -0.326 | 47.3 °C | 51.8 °C | 0.56 |
| MGAPRSLLLALAAGLAVARPPNIVLIFADDLGYGDLGCYGHPSSTTPNLDQLAAGGLRFTDFYVPVSLCTPSRAALLTGRLPVRMGMYPGVLVPSSRGGLPLEEVTVAEVLAARGYLTGMAGKWHLGVGPEGAFLPPHQGFHRFLGIPYSHDQGPCQNLTCFPPATPCDGGCDQGLVPIPLLANLSVEAQPPWLPGLEARYMAFAHDLMADAQRQDRPFFLYYASHHTHYPQFSGQSFAERSGRGPFGDSLMELDAAVGTLMTAIGDLGLLEETLVIFTADNGPETMRMSRGGCSGLLRCGKGTTYEGGVREPALAFWPGHIAPGVTHELASSLDLLPTLAALAGAPLPNVTLDGFDLSPLLLGTGKSPRQSLFFYPSYPDEVRGVFAVRTGKYKAHFFTQGSAHSDTTADPACHASSSLTAHEPPLLYDLSKDPGENYNLLGGVAGATPEVLQALKQLQLLKAQLDAAVTFGPSQVARGEDPALQICCHPGCTPRPACCHCPDPHA [ARSA] | 0.664 | 55.6 °C | 55.6 °C | -0.0336 |
| KIAA1217 | 0.0766 | 49.8 °C | 50.7 °C | 0.0131 |
| TNRC6A | -0.225 | 50.7 °C | – | -0.0232 |
| MGDEDDDESCAVELRITEANLTGHEEKVSVENFELLKVLGTGAYGKVFLVRKAGGHDAGKLYAMKVLRKAALVQRAKTQEHTRTERSVLELVRQAPFLVTLHYAFQTDAKLHLILDYVSGGEMFTHLYQRQYFKEAEVRVYGGEIVLALEHLHKLGIIYRDLKLENVLLDSEGHIVLTDFGLSKEFLTEEKERTFSFCGTIEYMAPEIIRSKTGHGKAVDWWSLGILLFELLTGASPFTLEGERNTQAEVSRRILKCSPPFPPRIGPVAQDLLQRLLCKDPKKRLGAGPQGAQEVRNHPFFQGLDWVALAARKIPAPFRPQIRSELDVGNFAEEFTRLEPVYSPPGSPPPGDPRIFQGYSFVAPSILFDHNNAVMTDGLEAPGAGDRPGRAAVARSAMMQDSPFFQQYELDLREPALGQGSFSVCRRCRQRQSGQEFAVKILSRRLEANTQREVAALRLCQSHPNVVNLHEVHHDQLHTYLVLELLRGGELLEHIRKKRHFSESEASQILRSLVSAVSFMHEEAGVVHRDLKPENILYADDTPGAPVKIIDFGFARLRPQSPGVPMQTPCFTLQYAAPELLAQQGYDESCDLWSLGVILYMMLSGQVPFQGASGQGGQSQAAEIMCKIREGRFSLDGEAWQGVSEEAKELVRGLLTVDPAKRLKLEGLRGSSWLQDGSARSSPPLRTPDVLESSGPAVRSGLNATFMAFNRGKREGFFLKSVENAPLAKRRKQKLRSATASRRGSPAPANPGRAPVASKGAPRRANGPLPPS [RPS6KA4] | -0.0622 | 46.6 °C | 49.5 °C | -0.0849 |
| MLPGLRRLLQAPASACLLLMLLALPLAAPSCPMLCTCYSSPPTVSCQANNFSSVPLSLPPSTQRLFLQNNLIRTLRPGTFGSNLLTLWLFSNNLSTIYPGTFRHLQALEELDLGDNRHLRSLEPDTFQGLERLQSLHLYRCQLSSLPGNIFRGLVSLQYLYLQENSLLHLQDDLFADLANLSHLFLHGNRLRLLTEHVFRGLGSLDRLLLHGNRLQGVHRAAFRGLSRLTILYLFNNSLASLPGEALADLPSLEFLRLNANPWACDCRARPLWAWFQRARVSSSDVTCATPPERQGRDLRALREADFQACPPAAPTRPGSRARGNSSSNHLYGVAEAGAPPADPSTLYRDLPAEDSRGRQGGDAPTEDDYWGGYGGEDQRGEQMCPGAACQAPPDSRGPALSAGLPSPLLCLLLLVPHHL [RTN4RL2] | 0.0566 | 54 °C | 53.7 °C | -0.00838 |
| MAAPWASLRLVAPMWNGRIRGIHRLGAAVAPEGNQKKKRTILQFLTNYFYDVEALRDYLLQREMYKVHEKNRSYTWLEKQHGPYGAGAFFILKQGGAVKFRDKEWIRPDKYGHFSQEFWNFCEVPVEAVDAGDCDINYEGLDNLLRLKELQSLSLQRCCHVDDWCLSRLYPLADSLQELSLAGCPRISERGLACLHHLQNLRRLDISDLPAVSNPGLTQILVEEMLPNCEVVGVDWAEGLKSGPEEQPRDTASPVPA [ATP5SL] | 0.174 | 52.9 °C | 52 °C | -0.0178 |
| GTF2H1 | -0.0948 | 50.2 °C | 49.1 °C | 0.114 |
| MAPRGRKRKAEAAVVAVAEKREKLANGGEGMEEATVVIEHCTSURVYGRNAAALSQALRLEAPELPVKVNPTKPRRGSFEVTLLRPDGSSAELWTGIKKGPPRKLKFPEPQEVVEELKKYLS [SELH] | -0.0665 | – | 52.2 °C | 0.17 |
| MEVHGKPKASPSCSSPTRDSSGVPVSKELLTAGSDGRGGIWDRLLINSQPKSRKTSTLQTVRIERSPLLDQVQTFLPQMARANEKLRKEMAAAPPGRFNIENIDGPHSKVIQMDVALFEMNQSDSKEVDSSEESSQDSSENSSESEDEDDSIPSEVTIDNIKLPNSEGGKGKIEVLDSPASKKKK [C12ORF45] | -0.302 | 52.9 °C | 53.7 °C | 0.0873 |
| MGPVRLGILLFLFLAVHEAWAGMLKEEDDDTERLPSKCEVCKLLSTELQAELSRTGRSREVLELGQVLDTGKRKRHVPYSVSETRLEEALENLCERILDYSVHAERKGSLRYAKGQSQTMATLKGLVQKGVKVDLGIPLELWDEPSVEVTYLKKQCETMLEEFEDIVGDWYFHHQEQPLQNFLCEGHVLPAAETACLQETWTGKEITDGEEKTEGEEEQEEEEEEEEEEGGDKMTKTGSHPKLDREDL [CNPY4] | 0.0586 | – | 54.3 °C | 0.223 |
| QSER1 | -0.136 | 46.5 °C | 48.5 °C | -0.127 |
| MSAGGSARKSTGRSSYYYRLLRRPRLQRQRSRSRSRTRPARESPQERPGSRRSLPGSLSEKSPSMEPSAATPFRVTGFLSRRLKGSIKRTKSQPKLDRNHSFRHILPGFRSAAAAAADNERSHLMPRLKESRSHESLLSPSSAVEALDLSMEEEVVIKPVHSSILGQDYCFEVTTSSGSKCFSCRSAAERDKWMENLRRAVHPNKDNSRRVEHILKLWVIEAKDLPAKKKYLCELCLDDVLYARTTGKLKTDNVFWGEHFEFHNLPPLRTVTVHLYRETDKKKKKERNSYLGLVSLPAASVAGRQFVEKWYPVVTPNPKGGKGPGPMIRIKARYQTITILPMEMYKEFAEHITNHYLGLCAALEPILSAKTKEEMASALVHILQSTGKVKDFLTDLMMSEVDRCGDNEHLIFRENTLATKAIEEYLKLVGQKYLQDALGEFIKALYESDENCEVDPSKCSAADLPEHQGNLKMCCELAFCKIINSYCVFPRELKEVFASWRQECSSRGRPDISERLISASLFLRFLCPAIMSPSLFNLLQEYPDDRTARTLTLIAKVTQNLANFAKFGSKEEYMSFMNQFLEHEWTNMQRFLLEISNPETLSNTAGFEGYIDLGRELSSLHSLLWEAVSQLEQSIVSKLGPLPRILRDVHTALSTPGSGQLPGTNDLASTPGSGSSSISAGLQKMVIENDLSGLIDFTRLPSPTPENKDLFFVTRSSGVQPSPARSSSYSEANEPDLQMANGGKSLSMVDLQDARTLDGEAGSPAGPDVLPTDGQAAAAQLVAGWPARATPVNLAGLATVRRAGQTPTTPGTSEGAPGRPQLLAPLSFQNPVYQMAAGLPLSPRGLGDSGSEGHSSLSSHSNSEELAAAAKLGSFSTAAEELARRPGELARRQMSLTEKGGQPTVPRQNSAGPQRRIDQPPPPPPPPPPAPRGRTPPNLLSTLQYPRPSSGTLASASPDWVGPSTRLRQQSSSSKGDSPELKPRAVHKQGPSPVSPNALDRTAAWLLTMNAQLLEDEGLGPDPPHRDRLRSKDELSQAEKDLAVLQDKLRISTKKLEEYETLFKCQEETTQKLVLEYQARLEEGEERLRRQQEDKDIQMKGIISRLMSVEEELKKDHAEMQAAVDSKQKIIDAQEKRIASLDAANARLMSALTQLKERYSMQARNGISPTNPTKLQITENGEFRNSSNC [DAB2IP] | 0.117 | 49.5 °C | 51 °C | 0.0598 |
| MATKDPTAVERANLLNMAKLSIKGLIESALSFGRTLDSDYPPLQQFFVVMEHCLKHGLKVRKSFLSYNKTIWGPLELVEKLYPEAEEIGASVRDLPGLKTPLGRARAWLRLALMQKKMADYLRCLIIQRDLLSEFYEYHALMMEEEGAVIVGLLVGLNVIDANLCVKGEDLDSQVGVIDFSMYLKNEEDIGNKERNVQIAAILDQKNYVEELNRQLNSTVSSLHSRVDSLEKSNTKLIEELAIAKNNIIKLQEENHQLRSENKLILMKTQQHLEVTKVDVETELQTYKHSRQGLDEMYNEARRQLRDESQLRQDVENELAVQVSMKHEIELAMKLLEKDIHEKQDTLIGLRQQLEEVKAINIEMYQKLQGSEDGLKEKNEIIARLEEKTNKITAAMRQLEQRLQQAEKAQMEAEDEDEKYLQECLSKSDSLQKQISQKEKQLVQLETDLKIEKEWRQTLQEDLQKEKDALSHLRNETQQIISLKKEFLNLQDENQQLKKIYHEQEQALQELGNKLSESKLKIEDIKEANKALQGLVWLKDKEATHCKLCEKEFSLSKRKHHCRNCGEIFCNACSDNELPLPSSPKPVRVCDSCHALLIQRCSSNLP [RUFY2] | -0.00835 | 49.1 °C | 49.3 °C | -0.122 |
| MEAVATATAAKEPDKGCIEPGPGHWGELSRTPVPSKPQDKVEAAEATPVALDSDTSGAENAAVSAMLHAVAASRLPVCSQQQGEPDLTEHEKVAILAQLYHEKPLVFLERFRTGLREEHLACFGHVRGDHRADFYCAEVARQGTARPRTLRTRLRNRRYAALRELIQGGEYFSDEQMRFRAPLLYEQYIGQYLTQEELSARTPTHQPPKPGSPGRPACPLSNLLLQSYEERELQQRLLQQQEEEEACLEEEEEEEDSDEEDQRSGKDSEAWVPDSEERLILREEFTSRMHQRFLDGKDGDFDYSTVDDNPDFDNLDIVARDEEERYFDEEEPEDAPSPELDGD [CCDC97] | 0.105 | 49.6 °C | 50.8 °C | 0.36 |
| MADQRQRSLSTSGESLYHVLGLDKNATSDDIKKSYRKLALKYHPDKNPDNPEAADKFKEINNAHAILTDATKRNIYDKYGSLGLYVAEQFGEENVNTYFVLSSWWAKALFVFCGLLTCCYCCCCLCCCFNCCCGKCKPKAPEGEETEFYVSPEDLEAQLQSDEREATDTPIVIQPASATETTQLTADSHPSYHTDGFN [DNAJC5] | 0.0289 | 56 °C | 53.5 °C | -0.273 |
